According to US20240117030A1 (Pfizer, published 2024):

Experiments:
Assay in all cases: cell-based or functional assay
[1] = molecular target: T1, recombinant human TSLP (glycosylated long form) (human, UniProt Q969D9 29-159)
[2] = molecular target: T1, recombinant human TSLP (glycosylated …); remark: listed apart in the source
human TSLP (long form) = human TSLP (long form) (human, UniProt Q969D9 29-159, Biotinylated on the Avi tag in some assays; glycosylated (Expi293F expression))
human IL-13 [3] = molecular target: human IL-13 (human, UniProt P35225 35-146)
human IL-4 [4] = molecular target: T2, human IL-4 (human, UniProt P05112 25-153)
T2 sequence (looked up): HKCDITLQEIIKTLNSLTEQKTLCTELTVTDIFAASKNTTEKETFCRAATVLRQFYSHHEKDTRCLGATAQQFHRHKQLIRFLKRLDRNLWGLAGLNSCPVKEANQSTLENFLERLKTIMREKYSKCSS

human IL-4 [5] = molecular target: T3, human IL-4 (human, UniProt P05112 25-153); remark: listed apart in the source
T3 sequence (looked up): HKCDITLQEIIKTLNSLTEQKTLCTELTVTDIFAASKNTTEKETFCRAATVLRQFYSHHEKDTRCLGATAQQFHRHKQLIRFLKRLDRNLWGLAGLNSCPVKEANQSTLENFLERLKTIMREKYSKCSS

human IL-13 [6] = molecular target: human IL-13 (human, UniProt P35225 35-146); remark: listed apart in the source
[7] = molecular target: T4, IL-33 (mm2), human IL-33 variant with all four cysteines changed to serine (human, UniProt O95760 112-270, limits assumed)
T4 sequence (looked up): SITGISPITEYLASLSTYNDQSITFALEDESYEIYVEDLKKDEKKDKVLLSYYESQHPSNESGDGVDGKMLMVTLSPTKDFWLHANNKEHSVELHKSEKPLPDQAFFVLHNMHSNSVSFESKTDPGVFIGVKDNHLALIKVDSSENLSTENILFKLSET

B1: TSLP-0260 (antibody, V domains shown)
VH: QMQLVESGGGVVQPGRSLRLSCAASGFTFRTYGMHWVRQAPGKGLEWVAVIWYDGSNKHYADSVKGRFTISRDNSKNTLYLQMNSLRAEDTAVYYCARAPQWYLVHEAFDIWGQGTMVTVSS
VL: SYVLTQPPSVSVAPGQTARITCGGNNLGSKSVHWYQQKPGQAPVLVVYDDSDRPSWIPERFSGSNSGNTATLTISRGEAGDEADYYCQVWDESSDHVVFGGGTKLTVLG
TARC bioassay (IC50, pM) [1]: 6.65 pM
a-TSLP TARC bioassay (fold change to TSLP-0001) [2]: 3.4 fold

B2: TSLP-0156 (antibody, human IgG1, lambda, V domains shown)
VH: QMQLVESGGGVVQPGRSLRLSCAASGFTFRTYGMHWVRQAPGKGLEWVAVIWYDGSNKHYADSVKGRFTISRDNSKNTLYLQMNSLRAEDTAVYYCARAPQWYLVHEAFDIWGQGTMVTVSS
VL: SYVLTQPPSVSVAPGQTARITCGGNNLGSKSVHWYQQKPGQAPVLVVYDDSDRPSWIPERFSGSNSGNTATLTISRGEAGDEADYYCQVWDSSSDHVVFGGGTKLTVLG
TARC bioassay (IC50, pM) [1]: 4.25 pM

B3: IL413TSLP-1037 (trispecific antibody)
heavy: not shown
chain 1: DIQMTQSPSSLSASVGDRVTITCKASESVDHFGWSLVHWYQQKPGKAPKLLIYRASNLESGVPSRFSGSGSGTDFTLTISSLQPEDFATYYCQQSNEDPWTFGGGTKVEIKRTVAAPSVFIFPPSDEQLKSGTASVVCLLNNFYPREAKVQWKVDNALQSGNSQESVTEQDSKDSTYSLSSTLTLSKADYEKHKVYACEVTHQGLSSPVTKSFNRGECGGGGSEVTLRESGPALVKPTQTLTLTCTFSGFSLSNFGEGLSWIRQPPGKGLEWLAHIYWDDDKRYNPSLKSRLTISKDTSRNQVVLTMTNMDPVDTATYYCARRETVFYWYFDVWGQGTTVTVSSASTKGPSVFPLAPSSKSTSGGTAALGCLVKDYFPEPVTVSWNSGALTSGVHTFPAVLQSSGLYSLSSVVTVPSSSLGTQTYICNVNHKPSNTKVDKKVEPKSCEKTHTCPPCPAPEAAGAPSVFLFPPKPKDTLMISRTPEVTCVVVDVSHEDPEVKFNWYVDGVEVHNAKTKPREEQYNSTYRVVSVLTVLHQDWLNGKEYKCKVSNKALPAPIEKTISKAKGQPREPQVYTLPPSREEMTKNQVSLTCEVKGFYPSDIAVEWESNGQPENNYKTTPPVLDSDGSFFLYSKLTVDKSRWQQGNVFSCSVLHEALHSHYTQKSLSLSPGK
light 1: SYVLTQPPSVSVAPGQTARITCGGNNLGSKSVHWYQQKPGQAPVLVVYDDKDRPSWIPERFSGSNSGNTATLTISRGEAGDEADYYCQVWDKSSDHVVFGGGTKLTVLGQPKAAPSVTLFPPSSEELQANKATLVCLISDFYPGAVTVAWKADSSPVKAGVETTTPSKQSNNKYAASSYLSLTPEQWKSHRSYSCQVTHEGSTVEKTVAPTECS
light 2: DIQMTQSPSSLSASVGDRVTITCRASQSVDEEGDSYMNWYQQKPGKAPKLLIYAASNLESGVPSRFSGSGSGTDFTLTISSLQPEDFATYYCQQSNKDPPTFGGGTKVEIKRTVAAPSVFIFPPSDEQLKSGTASVVCLLNNFYPREAKVQWKVDNALQSGNSQESVTEQDSKDSTYSLSSTLTLSKADYEKHKVYACEVTHQGLSSPVTKSFNRGEC
chain 2: EVQLVESGGGLVQPGGSLRLSCAASGFTFSSYAMSWVRQAPGKGLEWVASISSGDTTYYPDSVKGRFTISRDNAKNSLYLQMNSLRAEDTAVYYCARNEGYYFGLTLWGQGTLVTVSSASTKGPSVFPLAPSSKSTSGGTAALGCLVKDYFPEPVTVSWNSGALTSGVHTFPAVLQSSGLYSLSSVVTVPSSSLGTQTYICNVNHKPSNTKVDKKVEPKSC
fold lower potency than the mAb (TSLP-0871), monocyte TARC bioassay (human TSLP (long form)): ~2.5 fold
IC50, IL-13-induced CCL17 secretion by 769-P cells (human IL-13 [3]): 0.593 nM
IC50, IL-4-induced CCL17 secretion by 769-P cells (human IL-4 [4]): 0.179 nM

B4: IL13433-0005 (other)
heavy: EVTLRESGPALVKPTQTLTLTCTFSGFSLSNFGEGLSWIRQPPGKGLEWLAHIYWDDDKRYNPSLKSRLTISKDTSRNQVVLTMTNMDPVDTATYYCARRETVFYWYFDVWGQGTTVTVSSASTKGPSVFPEAPSSKSTSGGTAALGCLVKDYFPEPVTVSWNSGALTSGVHTFPAVLQSSGLYSLGSVVTVPSSSLGTQTYICNVNHKPSNTKVDKKVEPKSCDKTHTCPPCPAPEAAGAPSVFLFPPKPKDTLMISRTPEVTCVVVDVSHEDPEVKFNWYVDGVEVHNAKTKPREEQYNSTYRVVSVLTVLHQDWLNGKEYKCKVSNKALPAPIEKTISKAKGQPREPQVYTLPPCREEMTKNQVSLSCAVKGFYPSDIAVEWESNGQPENNYKTTPPVLDSDGSFFLVSKLTVDKSRWQQGNVFSCSVMHEALHNHYTQKSLSLSPGK
chain 1: DIQMTQSPSSLSASVGDRVTITCKASQNINKHLDWYQQKPGKAPKLLIYFTNNLQTGVPSRFSGSGSGTDFTLTISSLQPEDFATYYCFQYNQGWTFGGGTKVEIKRTVAAPSVFIFPPSDEQLKSGTASVVCLLNNFYPREAKVQWKVDNALQSGNSQESVTEQDSKDSTYSLSSTLTLSKADYEKHKVYACEVTHQGLSSPVTKSFNRGECGGGGSEVQLVESGGGLVQPGGSLRLSCAASGFTFSSYAMSWVRQAPGKGLEWVASISSGDTTYYPDSVKGRFTISRDNAKNSLYLQMNSLRAEDTAVYYCARNEGYYFGLTLWGQGTLVTVSSASTKGPSVFPKAPSSKSTSGGTAALGCLVKDYFPEPVTVSWNSGALTSGVHTFPAVLQSSGLYSLSSSVTVPSSSLGTQTYICNVNHKPSNTKVDKKVEPKSCDKTHTCPPCPAPEAAGAPSVFLFPPKPKDTLMISRTPEVTCVVVDVSHEDPEVKFNWYVDGVEVHNAKTKPREEQYNSTYRVVSVLTVLHQDWLNGKEYKCKVSNKALPAPIEKTISKAKGQPREPQVCTLPPSREEMTKNQVSLWCLVKGFYPSDIAVEWESNGQPENNYKTTPPVLDSDGSFFLYSKLTVDKSRWQQGNVFSCSVMHEALHNHYTQKSLSLSPGK
light 1: DIQMTQSPSSLSASVGDRVTITCKASQSVDEDGDSYMNWYQQKPGKAPKLLIYAASNLESGVPSRFSGSGSGTDFTLTISSLQPEDFATYYCQQSNEDPPTFGGGTKVEIKRTVAAPSVFIFPPSDEQLKSGTASVSCLLNNFYPREAKVQWKVDNALQSGNSQESVTEQDSKDSTYSLKSTLTLSKADYEKHKVYACEVTHQGLSSPVTKSFNRGEC
light 2: DIQMTQSPSSLSASVGDRVTITCKASESVDHFGWSLVHWYQQKPGKAPKLLIYRASNLESGVPSRFSGSGSGTDFTLTISSLQPEDFATYYCQQSNEDPWTFGGGTKVEIKRTVAAPSVFIFPPSDEQLKSGTASVSCLLNNFYPREAKVQWKVDNALQSGNSQESVTEQDSKDSTYSLDSTLTLSKADYEKHKVYACEVTHQGLSSPVTKSFNRGEC
chain 2: EVQLVESGGGLVQPGGSLRLSCAASGFTFSSYWMYWVRQAPGKGLEWVAAITPNAGEDYYPESVKGRFTISRDNAKNSLYLQMNSLRAEDTAVYYCARGHYYYTSYSLGYWGQGTLVTVSSASTKGPSVFPLAPSSKSTSGGTAALGCLVKDYFPEPVTVSWNSGALTSGVHTFPAVLQSSGLYSLSSVVTVPSSSLGTQTYICNVNHKPSNTKVDKKVEPKSC
a-hIL-4 bioassay IC50, pM) (human IL-4 [5]): 3.2 pM
a-hIL-13 bioassay (IC50, pM) (human IL-13 [6]): 12.5 pM
a-IL-33 bioassay cys mutant IL33) IC50 (pM) [7]: 45 pM
